# Measurements as given in IntAct's records for PubMed 11226162.
# B1: B-box zinc finger protein 25 (Arabidopsis thaliana (Mouse-ear cress)), Q9SID1 (parent)
# chain: MKIQCDVCEKAPATLICCADEAALCAKCDVEVHAANKLASKHQRLFLDSLSTKFPPCDICLEKAAFIFCVEDRALLCRDCDEATHAPNTRSANHQRFLATGIRVALSSTSCNQEVEKNHFDPSNQQSLSKPPTQQPAAPSPLWATDEFFSYSDLDCSNKEKEQLDLGELDWLAEMGLFGDQPDQEALPVAEVPELSFSHLAHAHSYNRPMKSNVPNKKQRLEYRYDDEEEHFLVPDLG
# partner: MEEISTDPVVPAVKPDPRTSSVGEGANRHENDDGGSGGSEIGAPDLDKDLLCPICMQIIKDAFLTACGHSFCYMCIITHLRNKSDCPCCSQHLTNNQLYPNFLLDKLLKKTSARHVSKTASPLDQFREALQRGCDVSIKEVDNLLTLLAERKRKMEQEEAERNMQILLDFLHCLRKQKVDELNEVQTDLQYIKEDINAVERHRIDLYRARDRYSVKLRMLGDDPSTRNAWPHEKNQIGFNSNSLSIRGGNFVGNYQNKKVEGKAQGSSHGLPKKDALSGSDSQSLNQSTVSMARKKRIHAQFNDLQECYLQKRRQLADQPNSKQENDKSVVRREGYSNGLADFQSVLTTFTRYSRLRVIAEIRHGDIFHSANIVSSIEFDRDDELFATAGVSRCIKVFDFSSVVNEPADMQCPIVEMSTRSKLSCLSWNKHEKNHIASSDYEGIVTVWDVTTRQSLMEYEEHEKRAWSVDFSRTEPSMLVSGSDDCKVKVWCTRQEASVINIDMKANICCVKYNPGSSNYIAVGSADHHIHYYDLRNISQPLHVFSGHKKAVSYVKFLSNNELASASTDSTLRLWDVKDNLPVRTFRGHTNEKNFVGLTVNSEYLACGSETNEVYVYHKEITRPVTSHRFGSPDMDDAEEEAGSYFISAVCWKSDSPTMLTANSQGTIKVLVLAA
# B2: E3 ubiquitin-protein ligase COP1 (Arabidopsis thaliana (Mouse-ear cress)), P43254 (parent)
# chain: B1 partner
# partner: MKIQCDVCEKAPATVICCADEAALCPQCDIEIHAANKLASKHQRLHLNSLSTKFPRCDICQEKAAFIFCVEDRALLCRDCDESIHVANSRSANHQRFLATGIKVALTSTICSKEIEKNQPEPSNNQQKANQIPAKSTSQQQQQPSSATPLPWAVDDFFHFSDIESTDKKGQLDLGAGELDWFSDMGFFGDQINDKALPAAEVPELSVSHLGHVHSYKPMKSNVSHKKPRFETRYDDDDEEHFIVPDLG
# B3: E3 ubiquitin-protein ligase COP1 (Arabidopsis thaliana (Mouse-ear cress)), P43254 (parent)
# chain: B1 partner
# partner: B1 chain
# B4: Transcription factor HY5 (Arabidopsis thaliana (Mouse-ear cress)), O24646 (parent)
# chain: MQEQATSSLAASSLPSSSERSSSSAPHLEIKEGIESDEEIRRVPEFGGEAVGKETSGRESGSATGQERTQATVGESQRKRGRTPAEKENKRLKRLLRNRVSAQQARERKKAYLSELENRVKDLENKNSELEERLSTLQNENQMLRHILKNTTGNKRGGGGGSNADASL
# partner: B1 partner
# B5: E3 ubiquitin-protein ligase COP1 (Arabidopsis thaliana (Mouse-ear cress)), P43254 (parent)
# chain: B1 partner
# partner: B4 chain
# Variants of: B1
# Details: with cop1_arath COP1, P43254
row,Variant,effect of a mutation on the interaction
1,MKIQCDVCEKAPATLICCADEAALCAKCDVEVHAANKLASKHQRLFLDSLSTKFPPCDICLEKAAFIFCVEDRALLCRDCDEATHAPNTRSANHQRFLATGIRVALSSTSCNQEVEKNHFDPSNQQSLSKPPTQQPAAPSPLWATDEFFSYSDLDCSNKEKEQLDLGELDWLAEMGLFGDQPDQEALPVAEVPELSFSHLAHAHSYNRPMKSNVPNKKQRLEYRYDDEEEHFLAADLG [V234A;P235A],decreasing interaction

# Variants of: B2
# Details: with BBX24, Q96288-1
row,Variant,effect of a mutation on the interaction
1,G524E,decreasing interaction
2,K550E,decreasing interaction
3,E592R,increasing interaction
4,R465E,decreasing interaction
5,K422E,decreasing interaction
6,W467A,decreasing interaction

# Variants of: B3
# Details: with bbx25_arath BBX25, Q9SID1
row,Variant,effect of a mutation on the interaction
1,K422E,decreasing interaction
2,W467A,decreasing interaction
3,G524E,decreasing interaction
4,E592R,increasing interaction
5,R465E,decreasing interaction
6,K550E,decreasing interaction

# Variants of: B4
# Details: with cop1_arath COP1, P43254
row,Variant,effect of a mutation on the interaction
1,MQEQATSSLAASSLPSSSERSSSSAPHLEIKEGIESDEEIRRAAEFGGEAVGKETSGRESGSATGQERTQATVGESQRKRGRTPAEKENKRLKRLLRNRVSAQQARERKKAYLSELENRVKDLENKNSELEERLSTLQNENQMLRHILKNTTGNKRGGGGGSNADASL,decreasing interaction

# Variants of: B5
# Details: with hy5_arath HY5, O24646
row,Variant,effect of a mutation on the interaction
1,G524E,decreasing interaction
2,K550E,decreasing interaction
3,E592R,increasing interaction
4,W467A,decreasing interaction
5,K422E,increasing interaction
